B2: Recombinant His-tag PGRN protein (recombinant human progranulin) (ligand)
chain: TRCPDGQFCPVACCLDPGGASYSCCRPLLDKWPTTLSRHLGGPCQVDAHCSAGHSCIFTVSGTSSCCPFPEAVACGDGHHCCPRGFHCSADGRSCFQRSGNNSVGAIQCPDSQFECPDFSTCCVMVDGSWGCCPMPQASCCEDRVHCCPHGAFCDLVHTRCITPTGTHPLAKKLPAQRTNRAVALSSSVMCPDARSRCPDGSTCCELPSGKYGCCPMPNATCCSDHLHCCPQDTVCDLIQSKCLSKENATTDLLTKLPAHTVGDVKCDMEVSCPDGYTCCRLQSGAWGCCPFTQAVCCEDHIHCCPAGFTCDTQKGTCEQGPHQVPWMEKAPAHLSLPDPQALKRDVPCDNVSSCPSSDTCCQLTSGEWGCCPIPEAVCCSDHQHCCPQGYTCVAEGQCQRGSEIVAGLEKMPARRASLSHPRDIGCDQHTSCPVGQTCCPSLGGSWACCQLPHAVCCEDRQHCCPAGYTCNVKARSCEKEVVSAQPATFLARSPHVGVKDVECGEGHFCHDNQTCCRDNRQGWACCPYRQGVCCADRRHCCPAGFRCAARGTKCLRREAPRWDAPLRDPALRQLL
notes: Coated on the plate in the solid phase assay; analyte (200 nM) in SPR; also called rPGRN; His-tagged PGRN; not shown: His tag
B4: Recombinant GBA (R&D Systems Cat. No. 7410-GH-010) (enzyme, UniProt P04062 40-536, looked up)
chain: ARPCIPKSFGYSSVVCVCNATYCDSFDPPTFPALGTFSRYESTRSGRRMELSMGPIQANHTGTGLLLTLQPEQKFQKVKGFGGAMTDAAALNILALSPPAQNLLLKSYFSEEGIGYNIIRVPMASCDFSIRTYTYADTPDDFQLHNFSLPEEDTKLKIPLIHRALQLAQRPVSLLASPWTSPTWLKTNGAVNGKGSLKGQPGDIYHQTWARYFVKFLDAYAEHKLQFWAVTAENEPSAGLLSGYPFQCLGFTPEHQRDFIARDLGPTLANSTHHNVRLLMLDDQRLLLPHWAKVVLTDPEAAKYVHGIAVHWYLDFLAPAKATLGETHRLFPNTMLFASEACVGSKFWEQSVRLGSWDRGMQYSHSIITNLLYHVVGWTDWNLALNPEGGPNWVRNFVDSPIIVDITKDTFYKQPMFYHLGHFSKFIPEGSQRVGLVASQKNDLDAVALMHPDGSAVVVVLNRSSKDVPLTIKDPAVGFLETISPGYSIHTYLWRRQ
modifications: biotin-labeled (EZ-Link Sulfo-NHS-LC-Biotin) in the solid phase binding assay only
notes: Bought protein; Immobilised on the COOH1 chip in SPR; also called glucocerebrosidase; beta-glucocerebrosidase

Legend:
[1] = biological target: T1, mouse GBA (endogenous, lung tissue) (mouse, UniProt P17439 20-515); assay: co-immunoprecipitation from lung lysate of WT and PGRN KO mice, IP: GBA, IB: LIMP2
T1 construct: Endogenous protein precipitated or detected with anti-GBA antibody; also called glucocerebrosidase
T1 sequence (looked up): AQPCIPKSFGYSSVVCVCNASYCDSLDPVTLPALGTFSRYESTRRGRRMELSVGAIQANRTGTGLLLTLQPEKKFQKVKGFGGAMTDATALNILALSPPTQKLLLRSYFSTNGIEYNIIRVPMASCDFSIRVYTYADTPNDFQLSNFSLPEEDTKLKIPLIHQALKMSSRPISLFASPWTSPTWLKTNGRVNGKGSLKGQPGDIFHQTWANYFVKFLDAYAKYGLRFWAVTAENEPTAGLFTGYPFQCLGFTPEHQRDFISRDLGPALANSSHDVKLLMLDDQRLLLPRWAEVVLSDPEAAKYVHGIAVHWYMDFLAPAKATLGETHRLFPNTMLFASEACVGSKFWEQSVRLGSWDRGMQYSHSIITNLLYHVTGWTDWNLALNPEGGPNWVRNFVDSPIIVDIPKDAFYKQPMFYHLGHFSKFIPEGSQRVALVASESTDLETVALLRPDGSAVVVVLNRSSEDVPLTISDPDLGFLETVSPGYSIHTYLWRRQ

[2] = biological target: B4; assay: solid phase binding assay: PGRN coated at the concentration on the x axis (µg/ml), biotin-labeled GBA added, streptavidin-HRP, OD 450 nm
Experimental: (§1) The plate was washed with 0.1% tween/PBS five times and then blocked with 2% BSA/PBS solution. […] Wash with 0.1% tween/PBS, and coated with streptavidin-HRP (1:2000 dilution) solution for 1 hour. After washing add t h e substrate and stop the reaction with 100 μl 2M H₂SO₄. Read result at UV 450 nm in plate reader.

[3] = biological target: T2, Recombinant sortilin (R&D Systems Cat. No. 3154-ST-050) (UniProt Q99523 78-755); assay: SPR, SensiQ Pioneer, COOH1 chip, Sortilin immobilised, PGRN as analyte (data not shown)
T2 construct: Bought protein; Immobilised on channel 1 of the chip in SPR

[4] = biological target: T3, mouse Sortilin (endogenous, lung tissue) (mouse, UniProt Q6PHU5 74-825); assay: co-immunoprecipitation from lung lysate of WT and PGRN KO mice, IP: Sortilin, IB: GLA
T3 construct: Endogenous protein in lung lysate

[5] = biological target: B2; assay: SPR (SensiQ Pioneer), GBA immobilised, PGRN injected, running buffer pH 7.4
Experimental: (§2) All SPR experiments were done by SensiQ Technologies Inc. (Oklahoma City, Okla.) by using SensiQ Pioneer at a controlled analysis temperature of 25° C., and samples in the instrument sample racks were maintained at 18° C. The running buffer throughout the immobilization and the assay consisted of 10 mM HEPES, 150 mM NaCl, 0.005% Tween 20.
(§3) Data was analyzed using the QDat Analysis Software (SensiQ Technologies and BioLogic Software). All data were double referenced to a reference channel (channel 2) and buffer blanks. The average signal of the buffer blanks was used to subtract injection artifacts. Referenced SPR data from the analysis channels were model fit to ascertain ka, kd, and KD for the interactions.

[6] = biological target: B2; assay: SPR (SensiQ Pioneer), GBA immobilised, PGRN injected, running buffer pH 5.5
Experimental: as §2, §3

[7] = biological target: B2; assay: SPR (SensiQ Pioneer), GBA immobilised, PGRN injected, running buffer pH 6.0
Experimental: as §2, §3

[8] = biological target: B2; assay: SPR (SensiQ Pioneer), GBA immobilised, PGRN injected, running buffer pH 6.5
Experimental: as §2, §3

[9] = biological target: B2; assay: solid phase binding assay: PGRN coated at the concentration on the x axis (µg/ml), biotin-labeled LIMP2 added, streptavidin-HRP, OD 450 nm
Experimental: as §1

T3 sequence (Q6PHU5 74-825 limits assumed): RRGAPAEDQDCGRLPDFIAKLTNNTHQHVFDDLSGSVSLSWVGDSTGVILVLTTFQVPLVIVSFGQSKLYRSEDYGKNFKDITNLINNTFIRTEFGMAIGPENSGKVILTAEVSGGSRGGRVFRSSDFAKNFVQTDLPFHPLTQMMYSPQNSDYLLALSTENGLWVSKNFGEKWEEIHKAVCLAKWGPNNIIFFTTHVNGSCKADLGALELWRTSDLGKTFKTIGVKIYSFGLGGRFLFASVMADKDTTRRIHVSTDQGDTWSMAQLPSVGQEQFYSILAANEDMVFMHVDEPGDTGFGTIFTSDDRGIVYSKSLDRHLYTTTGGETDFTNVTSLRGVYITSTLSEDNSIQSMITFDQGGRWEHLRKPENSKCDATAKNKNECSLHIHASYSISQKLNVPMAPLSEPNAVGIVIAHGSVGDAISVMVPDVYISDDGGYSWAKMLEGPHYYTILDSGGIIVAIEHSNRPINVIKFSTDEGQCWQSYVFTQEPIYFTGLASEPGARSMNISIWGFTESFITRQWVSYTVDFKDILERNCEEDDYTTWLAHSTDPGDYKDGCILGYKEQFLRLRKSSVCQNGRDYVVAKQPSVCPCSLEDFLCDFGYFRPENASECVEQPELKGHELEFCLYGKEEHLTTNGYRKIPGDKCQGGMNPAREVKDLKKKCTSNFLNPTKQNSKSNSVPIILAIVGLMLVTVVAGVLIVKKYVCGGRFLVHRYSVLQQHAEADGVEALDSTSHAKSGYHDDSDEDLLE

B1: mouse LIMP2 (endogenous, lung tissue) (receptor, UniProt O35114 1-478, looked up)
chain: MGRCCFYTAGTLSLLLLVTSVTLLVARVFQKAVDQTIEKNMVLQNGTKVFNSWEKPPLPVYIQFYFFNVTNPEEILQGEIPLLEEVGPYTYRELRNKANIQFGENGTTISAVTNKAYVFERNQSVGDPNVDLIRTINIPLLTVVDLAQLTLLRELIEAMLKAYQQKLFVIHTVHELLWGYKDEILSLVHIFKPDVSPNFGLFYERNGTNDGEYVFLTGEDNYLNFSKIVEWNGKTSLDWWTTDTCNMINGTDGDSFHPLISKDEVLYLFPSDLCRSVHITFSSFENVEGLPAFRYKVPAEILANTSENAGFCIPEGNCMDSGVLNISICKNGAPIIMSFPHFYQADEKFVSAIKGMHPNKEEHESFVDINPLTGIILRGAKRFQINTYVRKLDDFVETGDIRTMVFPVMYLNESVLIDKETANQLKSVINTTLVVTNIPYIIMALGVFFGLVFTWLACRGQGSMDEGTADERAPLIRT
notes: Endogenous protein in lung lysate; also called Lysosomal integral membrane protein 2
B1: binds [1].

For B2, the “EC50 (read off the curve)” value [2] was ~1 µg/mL and the Kd [3] was 3.67 nM.

B3: mouse alpha-galactosidase A (endogenous, lung tissue) (enzyme, UniProt P51569 32-419, looked up)
chain: LDNGLARTPTMGWLHWERFMCNLDCQEEPDACISEQLFMQMAELMVSDGWRDAGYDYLCIDDCWMAPERDSKGRLQADPQRFPSGIKHLANYVHSKGLKLGIYADVGNKTCAGFPGSFGSYDIDAQTFADWGVDLLKFDGCHCDSVVSLENGYKYMALALNRTGRSIVYSCEWPLYLRPFHKPNYTDIQYYCNHWRNFDDVYDSWESIKNILSWTVVYQKEIVEVAGPGSWNDPDMLVIGNFGLSWDQQVTQMALWAIMAAPLLMSNDLRQISSQAKALLQNKDVIAINQDPLGKQGYCFRKENHIEVWERPLSNLAWAVAVRNLQEIGGPCPYTIQISSLGRGLACNPGCIITQLLPEKVHLGFYEWTLTLKTRVNPSGTVLFRLER
notes: Endogenous protein in lung lysate; also called GLA; alpha-GLA
B3: binds [4].

Binder B4 has a Kd [5] of 0.71 nM, a Kd [6] of 55 nM and a Kd [7] of 16.9 nM. The Kd [8] was 20.8 nM.

B5: Recombinant LIMP2 (R&D Systems Cat. No. 1966-LM-050) (receptor, UniProt Q14108 27-432, looked up)
chain: RVFQKAVDQSIEKKIVLRNGTEAFDSWEKPPLPVYTQFYFFNVTNPEEILRGETPRVEEVGPYTYRELRNKANIQFGDNGTTISAVSNKAYVFERDQSVGDPKIDLIRTLNIPVLTVIEWSQVHFLREIIEAMLKAYQQKLFVTHTVDELLWGYKDEILSLIHVFRPDISPYFGLFYEKNGTNDGDYVFLTGEDSYLNFTKIVEWNGKTSLDWWITDKCNMINGTDGDSFHPLITKDEVLYVFPSDFCRSVYITFSDYESVQGLPAFRYKVPAEILANTSDNAGFCIPEGNCLGSGVLNVSICKNGAPIIMSFPHFYQADERFVSAIEGMHPNQEDHETFVDINPLTGIILKAAKRFQINIYVKKLDDFVETGDIRTMVFPVMYLNESVHIDKETASRLKSMINTT
modifications: biotin-labeled (EZ-Link Sulfo-NHS-LC-Biotin)
notes: Bought protein; also called Lysosomal integral membrane protein 2
B5: no binding (tested: 5 µg/ml) [9].

From patent US20170049855A1 (NEW YORK UNIVERSITY, published 2017)
